Reference: the nanobody polyreactivity screen of Harvey et al. (2022)

Assay: yeast display, Sf9 membrane polyspecificity reagent, FACS + sequencing; frameworks hold sequencing errors
Summary of the method: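 Using colony PCR, genes from sorted yeast display clones were amplified, then sequenced on MiSeq at 2 × 250 and filtered by CDR length. The clones had been stained with 10% biotinylated, detergent-solubilized Sf9 membrane reagent for 1 hour at 4 °C and sorted by FACS into low and high (top ~1%) gates on anti-HA and streptavidin fluorescence. Polyreactivity labels come from the gate of origin.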

Sequence | polyreactivity (PSR sort gate)
QVQLVESGGGLVQAGGSLRLSCAASGSIFTGNTMGSDRQAPGKERELVAAISRSGGSTYYADSVKGRFTISRDNAKNTVYLQMNSLKPEDTAVYYCAAYRTHGPPRAIRFDYWGQGTQVTVSS | high polyreactivity
QVQLVESGGGLVQAGGSLRLSCAASGSIFTGYAMGWYRQAPGKERELVAAISNSGTSTYYADSVKGRFTISRDNAKNTVYLQMNSLKPEDTAVYYCNTVGHRWLSDDDYWGQGTQVTVSS | low polyreactivity
QVQLVESGGGLVQAGGSLRLSCAASGSIFTGYAMGWYRQAPGKERELVARITKRGGSTYYADSVKGRFTISRDNAKNTVYLQMNSLKPEDTAVYYCNADRKFPYGSYETHDYWGQGTQVTVSS | high polyreactivity
QVQLVESGGGLVQAGGSLRLSCAASGSIFTHYAMGWYRPAPGKERELVATISNGDGSTYYADSVKGRFTISRDNAKNTVYLQMNSLKPEDTAVYYCNVDDFSQYADDSWGYEYWGQGTQVTVSS | low polyreactivity
QVQLVESGGGLVQAGGSLRLSCAASGSIFTINAMGWYRQAPGKVRELVAAISWSGAPTYYADSVKGRFTISRDNAKNTVYLQMNSLTPEDTAVYYCATGYNYLDRNTGYVHRFDYWGQGTQVTVSS | low polyreactivity
QVQLVESGGGLVQAGGSLRLSCAASGSIFTIYAMGWYRQAPGKERELVAAISFSGGSTYYADSVKGRFTISRDNAKNSVYLQMNSLKPEDTAVYYCAADGGFTYDYWGQGTQVTVSS | low polyreactivity
QVQLVESGGGLVQAGGSLRLSCAASGSIFTIYAMGWYRQAPGKERELVAAITRSGGSTSYADSVKGRFTISRDNAKNTVYLQMNSLKPEDTAVYYCNKDLNFAKYISSILYDYWGQGTQVTVSS | low polyreactivity
QVQLVESGGGLVQAGGSLRLSCAASGSIFTIYAMGWYRQAPGKERELVATITGGGGSTYYADSVKGRFTISRDNAKNTVYLQMNSLKPEDTAVYDCAADSPGWTYTSRSYDYWGQGTQVTVSS | low polyreactivity
QVQLVESGGGLVQAGGSLRLSCAASGSIFTKYAMGWYRQAPGKERELVAAISWSGVSTYYADSVKGRFTISRDNAKHTVYLQMNSLKPEDTAVYYCNTRRYRSYGTTRYGYWGQGTQLTVSS | high polyreactivity
QVQLVESGGGLVQAGGSLRLSCAASGSIFTKYAMGWYRQAPGKERELVAGISRTTGSTYYADSVKGRFTISRDNAKNTVYLQMNSLKPEDTAVYYCAALSYRRGISRDGGYDYWGQGTQVTVSS | high polyreactivity
QVQLVESGGGLVQAGGSLRLSCAASGSIFTLNAMGWYRQATGKEREFVAAITLRSGSTYYADSVKGRFTISRDNAKNTVYLQMNSLKPEDTAVYYCAARRTRYIYYYWGQGTQVTVSS | high polyreactivity
QVQLVESGGGLVQAGGSLRLSCAASGSIFTLYAMGWYIQAPGKEREFVAGMSFSTGRTYYADSVKGRFTISRDNAKNTVYLQMHSLTPEDTAGYYCAAYVSHYWYGLYRDGYWGQGTQATVSS | low polyreactivity
QVQLVESGGGLVQAGGSLRLSCAASGSIFTLYDMGWYRQAPGKERELVAAITSGGSTDYADSVKGRFTISRDNAKNTVYFQMNSLKPEDTAVYYCNAEAYPYWYRGASREYDYWGQGTQVTVSS | low polyreactivity
QVQLVESGGGLVQAGGSLRLSCAASGSIFTLYDMGWYRQAPGKERELVAAITSGGSTDYADTVKGRFTISRDNAKNTVYLQMNSLKPEDTAVYYCNAESFTYWYRGASREYDYWGQGTQVTVSS | low polyreactivity
QVQLVESGGGLVQAGGSLRLSCAASGSIFTNNAMGWYRQAPRKERELVAAISWSGGSTYYADSVKGRFTISRDNAKITVYLQMISLKPEDTAVSYCAARYLYYGGRPGYDSWGQGTQVTVSS | high polyreactivity
QVQLVESGGGLVQAGGSLRLSCAASGSIFTPNAMGWYRQAPGKERELVAAISRSGGSTYYADSVKGRFTISRDNAKNTVYLQMNSLKPEDTAVYYCAVDYRYYYRYTSGEYWGQGTQGTVSS | low polyreactivity

Sequence | polyreactivity (PSR sort gate)
QVQLVESGGGLVQAGGSLRLSCAASGSIFTPNAMGWYRQAPGKERELVAAISSSSDRTYYADSVKGRFTISRDNAKNTVYLQMNSLKPEDTAVYYCAAYAQKRYYWGQGTQVTVSS | high polyreactivity
QVQLVESGGGLVQAGGSLRLSCAASGSIFTPNVMGWYRQAPGKERELVAAISQSGGSTFYADSVKGRFTISRDNAKNTVYLQMNSLKPEDTAVYYCATEYYGPVYDLDYDYWGQGTQVNVSS | low polyreactivity
QVQLVESGGGLVQAGGSLRLSCAASGSIFTPYAMGWYRQAPGKERELVAAISSDGSTYYADSVKGRFTISRDNAKNTVYLQMNSLKTEDTAVYYCAAEYSWYYYYLFVGEYDYWGQGTQVTVSS | low polyreactivity
QVQLVESGGGLVQAGGSLRLSCAASGSIFTPYAMGWYRQAPGKERELVAAISYSGGSTYYADSVKGRFTISRDNAKNTVYLQMNSLKPEDTAVYYCATDGYVYTPFDDDEDYWGQGTQVTVSS | low polyreactivity
QVQLVESGGGLVQAGGSLRLSCAASGSIFTPYAMGWYRQAPGKERELVATISWSGGRTYYADSVKGRFTISRDNAKNTVYLQMNSLKPEDTAVYYCNADVLKYKFDYWGQGTQVTVSS | high polyreactivity
QVQLVESGGGLVQAGGSLRLSCAASGSIFTPYAMGWYRQAPGKEWELVAAISWRGCNTYYADSVKGRFTISRDNAKNTVYLQMNSLKPEDTAVYYCAAEQNYVYETGSYDYWGQGTQVTVSS | low polyreactivity
QVQLVESGGGLVQAGGSLRLSCAASGSIFTQNAMGWYRQAPGKERELVAGISDGDSTNYADSVKGRFTISRDNAKNTVYLQMNSLKPEDTAVYYCNAQGTTETSGGGFFRGMDYWGQGTQVTVSS | low polyreactivity
QVQLVESGGGLVQAGGSLRLSCAASGSIFTQYAMGWSRQAPGKERELVAVITTGSSTYYADSVKRRFTISRDNAKNTVYLQMNSLKPEDTSVYYCAVRTATRSPRRYGYWGQGTQVTVSS | high polyreactivity
QVQLVESGGGLVQAGGSLRLSCAASGSIFTQYAMGWYRQAPGKERELVAAISWTGGRTNYADSVKGRFTISRDTAKNTFYLQMNSLKPEDTSVYYCAATYLLRYCQGWKRMDYWGQGTQVTVSS | high polyreactivity
QVQLVESGGGLVQAGGSLRLSCAASGSIFTRNAMGWSRQAPGKEREFVAAISSSGVSTYYADSVKGRFTISRDNAKNTVYLQMNSLKPEDTAVYYCAARWGTKSGRYDYWGQGTQVTVSS | high polyreactivity
QVQLVESGGGLVQAGGSLRLSCAASGSIFTRNAMGWYRPAPGKERELVAAISRRGVSTYYADSVKGRFTTSRDNAKNTVYLQMNSLKPEDTAVYYCNKLSSYVVARRTTEYDYWGQGTQVTVSS | high polyreactivity
QVQLVESGGGLVQAGGSLRLSCAASGSIFTRNVMGWSRQAPGKERELVAAITGSGGRTYYADSVKGRFTISRDNAKNTVYLQMNSLKPEDTAVYYCAKSRPGTYDYWGQGTQVTVSS | high polyreactivity
QVQLVESGGGLVQAGGSLRLSCAASGSIFTRYAMGWYRQAPGKDRELDADIRWGGGDTYYADSVKGRFTNSRDNAKNTVYLQMNSLTPEDTAVYYCNADHTFIKYYPDWGDYGRDYDYWGQGTQVTVSS | low polyreactivity
QVQLVESGGGLVQAGGSLRLSCAASGSIFTRYAMGWYRQAPGKERELVAAITASGGRTYYADSVKGRFTISRDNAKNTVYLQMNSLKPEDTAVYYCNTYWRYTSQLPYDYWGQGTQVTVSS | high polyreactivity
QVQLVESGGGLVQAGGSLRLSCAASGSIFTRYAMGWYRQAPGKERELVAAITKSGSRTYYADSVKGRFTISRDNAKNTVYLQMNSLKPEDTAVYYCAVKFYLPRTRGGYWGQGTQVTVSS | high polyreactivity
